Paper PMC10641233, “The C-terminal domain of the antiamyloid chaperone DNAJB6 binds to amyloid-β peptide fibrils and inhibits secondary nucleation” (The Journal of Biological Chemistry, 2023)
One block for each molecule: values may come before it.

B1: C-terminal domain (CTD) of DNAJB6, WT sequence (residues 186–242 plus a starting Met) (domain or fragment)
chain: MGNFKSISTSTKMVNGRKITTKRIVENGQERVEVEEDGQLKSLTINGKEQLLRLDNK
notes: starting Met added before residue 186; numbers count on: full-length DNAJB6; also called WT CTD

What was measured:
[1] = molecular target: Aβ42 fibrils (amyloid-β peptide Aβ(M1-42), fibrillar form)
[2] = molecular target: Aβ42 fibrils (amyloid-β peptide Aβ(M1-42), fibrillar form); test: SPR; Aβ42 fibrils immobilised, construct injected (CTD at 2, 5 and 10 μM); 20 mM sodium phosphate, 0.2 mM EDTA, pH 8.0, 0.005% Tween-20
[3] = molecular target: S100G-CTDβ1–2 (β-strands 1 and 2 of the DNAJB6 CTD, residues 187–212, grafted between the two EF-hands of human S100G) (UniProt O75190); test: cross-linking; 10 μM construct, BS3 amine-reactive crosslinker, 20 mM sodium phosphate, 0.2 mM EDTA (pH 8.0), SDS-PAGE with integration of band intensities and LC-MS/MS of excised bands; dimer to monomers; KD are lower bounds
[4] = molecular target: S100G-CTDβ1–2STA (ST/A-substituted variant of S100G-CTDβ1–2) (UniProt O75190); test: as above
[5] = molecular target: S100G-CTDβ1–4 (four β-strands of the DNAJB6 CTD, residues 187–231, grafted between the two EF-hands of human S100G) (UniProt O75190); test: as above
[6] = molecular target: S100G-CTDβ1–4STA (ST/A-substituted variant of S100G-CTDβ1–4) (UniProt O75190); test: as above
[7] = molecular target: the molecule itself; test: cross-linking; 10 μM construct, BS3 amine-reactive crosslinker, 20 mM sodium phosphate, 0.2 mM EDTA (pH 8.0), SDS-PAGE with integration of band intensities and LC-MS/MS of excised bands; tetramer to dimers; KD is a lower bound
[8] = molecular target: the molecule itself; test: cross-linking; 10 μM construct, BS3 amine-reactive crosslinker, 20 mM sodium phosphate, 0.2 mM EDTA (pH 8.0), SDS-PAGE with integration of band intensities and LC-MS/MS of excised bands; dimer to monomers; KD are lower bounds
[9] = molecular target: the molecule itself; test: native MS; equimolar mixture of CTD and CTD STA ionised from 200 mM ammonium acetate, pH 6.8, source temperature 25 °C, gentle ionisation; also nonmixed samples (Fig. S3)
[10] = molecular target: B1; test: as above; details: both partners purified

Ka [2]: 300000 M⁻¹
Kd [3]: > 60 µM
Molecule: S100G-CTDβ1–2 (β-strands 1 and 2 of the DNAJB6 CTD, residues 187–212, grafted between the two EF-hands of human S100G) (from UniProt O75190-2 187-212)

Kd [6]: > 1000 µM
Molecule: S100G-CTDβ1–4STA (ST/A-substituted variant of S100G-CTDβ1–4) (from UniProt O75190-2 187-231)

Continued, molecule first:

Molecule: C-terminal domain (CTD) of DNAJB6, WT sequence (residues 186–242 plus a starting Met) (from UniProt O75190-2 186-241) (domain or fragment)
ThT fluorescence, reaction half time t1/2 of the aggregation of 3 μM Aβ42, CTD:Aβ42 M ratios from 0.05:1 to 1:1 [1]: 10 fold
Ka [2]: 100000 M⁻¹

Molecule: S100G-CTDβ1–2STA (ST/A-substituted variant of S100G-CTDβ1–2) (from UniProt O75190-2 187-212)
Kd [4]: > 1000 µM

Molecule: S100G-CTDβ1–4 (four β-strands of the DNAJB6 CTD, residues 187–231, grafted between the two EF-hands of human S100G) (from UniProt O75190-2 187-231)
Ka [2]: 1e+07 M⁻¹
Kd [5]: > 500 µM

Molecule: B1
Kd [7]: ≥ 2 µM
stoichiometry N [7]: 4
Kd [8]: ≥ 30 µM
stoichiometry N [9]: 2

B2: CTD STA (CTD with S190A + S192A + T193A + S194A + T195A in β1) (domain or fragment)
chain: MGNFKAIAAAAKMVNGRKITTKRIVENGQERVEVEEDGQLKSLTINGKEQLLRLDNK
notes: starting Met added before residue 186; numbers count on: full-length DNAJB6; also called S/T-A-substituted variant
Kd [8]: ≥ 600 µM
stoichiometry N [9]: 2
binding result [10]: binds
